Data as given in PMC7900760, “Perilipin 5 S155 phosphorylation by PKA is required for the control of hepatic lipid metabolism and glycemic control” (Journal of Lipid Research, 2021).
Substitutions are numbered along the chain they refer to. Names and notes keep the numbering of the source.

B1: PLIN5-YFP (perilipin 5 fused to YFP) (natural protein, mouse, UniProt Q8BVZ1 1-463, looked up)
chain: MDQRGEDTTLAPHSRMSGDQTAQDPGSSLGELDQQNVVNRVVALPLVKATCTAVSSAYNSAKDRHPLLGSACRLAEHCVCSVTTCALDHAQPLLEHLQPQLATVNDLACRGLDKLEEKLPFLQQPSDMVVTSAKDTVAKSVTGMVDLAQRGRRWSGELRRSMSQAMDMVLGKSEKLVDRFLPMTEAELAVLAAEAEGPEVGTVEEQRQQQGYFVRLGSLSARLRHLAYEHSLGKLRQSKHRTQEMLAQLQETLELIQHMQRGASPSPTFHPPKTQELWGSWSPCLENGRSHSEVELETLALSRSLTLELQNAVDALAGCVRGLPPSAQAKVAEVQRSVDALQATFADAHCLGDVAPTALAEGRGSVARAHACVDEFLDLVLRAMPLPWLVGPFAPILVEQSEPLINLATCVDEVVGDPDPRWAHMDWPAQKRAWEAESADPGGQEAEPPRGQGKHTMMPELDF
notes: Perilipin 5 (PLIN5), murine; also called wild-type PLIN5; source: HeLa cells, transiently transfected (Lipofectamine 3000), in live cells
B2: PLIN5 S155A-YFP (natural protein, mouse, UniProt Q8BVZ1 1-463, looked up)
chain: B1 chain with S155A
notes: Perilipin 5 (PLIN5), murine, with the phosphorylation-defective S155A mutation; also called phospho-mutant S155A; source: HeLa cells, transiently transfected (Lipofectamine 3000), in live cells

Tests used:
[1] = target: T1, ATGL-CFP (adipose triglyceride lipase fused to CFP) (UniProt Q8BJ56 1-486); experiment: FRET or BRET; phasor-based FLIM-FRET in live HeLa cells transiently co-transfected with a CFP donor (ATGL-CFP or ABHD5-CFP) and a YFP acceptor (PLIN5-YFP or PLIN5 S155A-YFP); 37°C, 5% CO2; before and after 20 μM forskolin; conditions: partners not purified
T1 construct: Adipose triglyceride lipase (ATGL); source: HeLa cells, transiently transfected (Lipofectamine 3000), in live cells
T1 sequence (looked up): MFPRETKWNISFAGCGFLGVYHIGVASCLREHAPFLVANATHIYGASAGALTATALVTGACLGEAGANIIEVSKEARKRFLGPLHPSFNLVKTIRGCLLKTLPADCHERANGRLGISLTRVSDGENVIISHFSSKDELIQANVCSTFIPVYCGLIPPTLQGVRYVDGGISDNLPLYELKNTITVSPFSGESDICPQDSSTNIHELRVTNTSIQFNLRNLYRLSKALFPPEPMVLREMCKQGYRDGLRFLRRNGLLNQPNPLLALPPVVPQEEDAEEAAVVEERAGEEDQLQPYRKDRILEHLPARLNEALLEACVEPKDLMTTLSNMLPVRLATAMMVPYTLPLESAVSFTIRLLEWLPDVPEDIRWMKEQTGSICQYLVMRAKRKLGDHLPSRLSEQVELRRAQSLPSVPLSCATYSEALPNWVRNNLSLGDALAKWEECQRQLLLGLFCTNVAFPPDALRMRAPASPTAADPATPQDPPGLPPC

[2] = target: T2, ABHD5-CFP (α-β hydrolase domain-containing 5 fused to CFP) (UniProt Q9DBL9 1-351); experiment: as above; conditions: partners not purified
T2 construct: α-β hydrolase domain-containing 5 (ABHD5, also known as CGI-58); also called CGI-58; source: HeLa cells, transiently transfected (Lipofectamine 3000), in live cells
T2 sequence (looked up): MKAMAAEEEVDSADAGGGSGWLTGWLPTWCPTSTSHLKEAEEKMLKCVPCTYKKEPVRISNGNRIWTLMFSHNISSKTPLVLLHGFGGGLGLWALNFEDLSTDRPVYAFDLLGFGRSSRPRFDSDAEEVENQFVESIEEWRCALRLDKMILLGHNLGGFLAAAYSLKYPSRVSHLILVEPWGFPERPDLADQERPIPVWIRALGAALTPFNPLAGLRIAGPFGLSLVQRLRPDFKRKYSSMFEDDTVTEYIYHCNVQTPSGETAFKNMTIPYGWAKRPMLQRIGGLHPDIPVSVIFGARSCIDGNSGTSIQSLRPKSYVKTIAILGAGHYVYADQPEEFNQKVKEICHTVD

FRET efficiency [1] [%] | FRET efficiency [2] [%] | Binder
20 | 25 | B1
20 | 25 | B2
